Results taken from doi:10.1101/152272, “t-Darpp is an elongated monomer that binds to calcium and is phosphorylated by cyclin-dependent kinases 1 and 5” (bioRxiv, 2017).

Target: the molecule itself
Test: cross-linking; glutaraldehyde 0.1% or 1% (v/v), 30 min at 25°C, then SDS-PAGE (10% gel); each protein alone and an equimolar mixture of t-Darpp and Darpp-32

B1: Darpp-32 (natural protein, UniProt Q9UD71-1 1-204, looked up)
chain: MDPKDRKKIQFSVPAPPSQLDPRQVEMIRRRRPTPAMLFRLSEHSSPEEEASPHQRASGEGHHLKSKRPNPCAYTPPSLKAVQRIAESHLQSISNLNENQASEEEDELGELRELGYPREEDEEEEEDDEEEEEEEDSQAEVLKVIRQSAGQKTTCGQGLEGPWERPPPLDESERDGGSEDQVEDPALSEPGEEPQRPSPSEPGT
notes: Darpp-32, the longer isoform encoded by PPP1R1B, with 36 more residues at the N-terminus than t-Darpp; The printed UniProt entry is the human protein; The construct is probably the whole isoform, because the tail is said to be added to the C-terminus of Darpp-32; also called recombinant Darpp-32; longer isoform of t-Darpp; source: E. coli BL21 DE3, purified (Ni-NTA)
stoichiometry N: 2
